Source: patent US20030049729

T1: human fibrinogen fragments, P02671
T1 chain 1: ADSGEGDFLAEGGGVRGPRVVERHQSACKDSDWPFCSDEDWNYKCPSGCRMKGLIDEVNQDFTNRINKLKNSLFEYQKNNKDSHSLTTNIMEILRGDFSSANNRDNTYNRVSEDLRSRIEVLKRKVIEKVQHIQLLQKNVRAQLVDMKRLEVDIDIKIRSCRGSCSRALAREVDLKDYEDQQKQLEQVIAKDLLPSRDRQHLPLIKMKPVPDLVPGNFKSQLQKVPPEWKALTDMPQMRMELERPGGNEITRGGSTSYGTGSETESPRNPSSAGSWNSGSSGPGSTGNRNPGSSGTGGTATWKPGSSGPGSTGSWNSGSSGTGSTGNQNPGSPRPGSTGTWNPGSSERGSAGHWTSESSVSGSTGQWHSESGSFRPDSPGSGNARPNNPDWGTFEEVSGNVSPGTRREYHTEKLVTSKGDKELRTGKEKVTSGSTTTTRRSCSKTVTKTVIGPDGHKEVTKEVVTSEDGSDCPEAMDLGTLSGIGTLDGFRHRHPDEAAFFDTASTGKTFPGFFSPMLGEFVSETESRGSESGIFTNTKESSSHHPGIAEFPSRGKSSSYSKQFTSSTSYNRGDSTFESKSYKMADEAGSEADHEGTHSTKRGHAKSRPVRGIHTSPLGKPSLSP
T1 chain 2: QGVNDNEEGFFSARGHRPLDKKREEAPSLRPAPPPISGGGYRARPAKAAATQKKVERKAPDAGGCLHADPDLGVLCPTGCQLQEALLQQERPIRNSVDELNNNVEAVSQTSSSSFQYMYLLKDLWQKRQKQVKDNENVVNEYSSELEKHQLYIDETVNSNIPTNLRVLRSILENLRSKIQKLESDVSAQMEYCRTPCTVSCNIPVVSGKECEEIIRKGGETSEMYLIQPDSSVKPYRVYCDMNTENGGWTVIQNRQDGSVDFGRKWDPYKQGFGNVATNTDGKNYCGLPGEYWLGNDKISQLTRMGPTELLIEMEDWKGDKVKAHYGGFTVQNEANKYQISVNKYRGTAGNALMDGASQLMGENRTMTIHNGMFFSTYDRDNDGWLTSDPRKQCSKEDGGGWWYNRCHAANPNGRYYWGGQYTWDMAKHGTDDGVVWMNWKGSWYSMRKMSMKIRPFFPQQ
T1 chain 3: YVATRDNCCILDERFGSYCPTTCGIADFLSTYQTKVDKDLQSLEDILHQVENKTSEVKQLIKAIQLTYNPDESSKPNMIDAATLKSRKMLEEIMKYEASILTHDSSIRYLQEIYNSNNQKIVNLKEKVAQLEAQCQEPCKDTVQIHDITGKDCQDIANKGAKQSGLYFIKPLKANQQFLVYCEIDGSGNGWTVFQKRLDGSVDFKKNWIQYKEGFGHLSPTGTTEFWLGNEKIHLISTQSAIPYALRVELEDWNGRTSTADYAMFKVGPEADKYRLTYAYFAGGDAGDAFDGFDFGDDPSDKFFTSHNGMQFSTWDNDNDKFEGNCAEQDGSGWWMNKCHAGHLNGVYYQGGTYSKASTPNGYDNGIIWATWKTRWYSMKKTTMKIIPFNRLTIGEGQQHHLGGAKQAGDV

B1: recombinant-K2S (r-K2S), kringle 2 plus serine protease portion of tPA, expressed in non-gpIII fusion form in XM[K2S] (protein)
chain: SEGNSDCYFGNGSAYRGTHSLTESGASCLPWNSMILIGKVYTAQNPSAQALGLGKHNYCRNPDGDAKPWCHVLKNRRLTWEYCDVPSCSTCGLRQYSQPQFRIKGGLFADIASHPWQAAIFAKHRRSPGERFLCGGILISSCWILSAAHCFQERFPPHHLTVILGRTYRVVPGEEEQKFEVEKYIVHKEFDDDTYDNDIALLQLKSDSSRCAQESSVVRTVCLPPADLQLPDWTECELSGYGKHEALSPFYSERLKEAHVRLYPSSRCTSQHLLNRTVTDNMLCAGDTRSGGPQANLHDACQGDSGGPLVCLNDGRMTLVGIISWGLGCGQKDVPGVYTKVTNYLDWIRDNMRP
B2: standard melanoma tPA 86/670 (protein)
chain: SYQVICRDEKTQMIYQQHQSWLRPVLRSNRVEYCWCNSGRAQCHSVPVKSCSEPRCFNGGTCQQALYFSDFVCQCPEGFAGKCCEIDTRATCYEDQGISYRGTWSTAESGAECTNWNSSALAQKPYSGRRPDAIRLGLGNHNYCRNPDRDSKPWCYVFKAGKYSSEFCSTPACSEGNSDCYFGNGSAYRGTHSLTESGASCLPWNSMILIGKVYTAQNPSAQALGLGKHNYCRNPDGDAKPWCHVLKNRRLTWEYCDVPSCSTCGLRQYSQPQFRIKGGLFADIASHPWQAAIFAKHRRSPGERFLCGGILISSCWILSAAHCFQERFPPHHLTVILGRTYRVVPGEEEQKFEVEKYIVHKEFDDDTYDNDIALLQLKSDSSRCAQESSVVRTVCLPPADLQLPDWTECELSGYGKHEALSPFYSERLKEAHVRLYPSSRCTSQHLLNRTVTDNMLCAGDTRSGGPQANLHDACQGDSGGPLVCLNDGRMTLVGIISWGLGCGQKDVPGVYTKVTNYLDWIRDNMRP

Assays:
[1] = biological target: T1, human fibrinogen fragments, P02671

plasminogen, sequence (P00747 20-810): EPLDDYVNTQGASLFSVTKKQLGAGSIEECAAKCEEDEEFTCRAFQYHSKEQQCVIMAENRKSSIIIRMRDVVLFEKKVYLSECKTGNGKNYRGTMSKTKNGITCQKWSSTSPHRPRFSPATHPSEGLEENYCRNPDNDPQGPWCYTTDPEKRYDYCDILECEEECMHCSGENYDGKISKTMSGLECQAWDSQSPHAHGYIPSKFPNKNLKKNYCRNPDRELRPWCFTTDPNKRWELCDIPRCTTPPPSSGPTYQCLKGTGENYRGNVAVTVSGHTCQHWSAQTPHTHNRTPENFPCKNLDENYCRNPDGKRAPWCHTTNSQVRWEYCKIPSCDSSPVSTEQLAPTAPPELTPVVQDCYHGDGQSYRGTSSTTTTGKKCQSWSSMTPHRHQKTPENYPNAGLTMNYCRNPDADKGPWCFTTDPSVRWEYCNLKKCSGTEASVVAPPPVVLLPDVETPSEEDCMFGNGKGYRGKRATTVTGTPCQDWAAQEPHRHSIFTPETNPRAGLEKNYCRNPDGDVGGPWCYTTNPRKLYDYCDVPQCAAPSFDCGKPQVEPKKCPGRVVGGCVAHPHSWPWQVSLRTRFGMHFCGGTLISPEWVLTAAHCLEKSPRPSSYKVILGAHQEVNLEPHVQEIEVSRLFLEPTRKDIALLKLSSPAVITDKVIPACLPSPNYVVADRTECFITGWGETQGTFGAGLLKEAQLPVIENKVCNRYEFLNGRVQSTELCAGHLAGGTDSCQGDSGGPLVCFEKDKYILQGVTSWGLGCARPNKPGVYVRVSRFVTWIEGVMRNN

Protein	copolymerized plasminogen polyacrylamide gel electrophoresis (plasminogen)	fibrinogen-dependent enzymatic activity (culture supernatant r-K2S) (plasminogen)	fibrinogen-dependent enzymatic activity (periplasmic r-K2S) (plasminogen)	enzymatic activity without fibrinogen [1]
B1	Transparent areas of serine protease digested plasminogen were observed only in the ammonium sulfate precipitated culture supernatants of XM[K2S] at 34 and 37 kDa postions	7 IU/ml	notably low enzymatic activity, which was below the sensitivity of the test (0.25 IU/ml)	Without fibrinogen no enzymatic activity of the r-K2S purified from culture supernatant was observed
B2	The positive control lane of standard melanoma tPA also demonstrated enzymatic activity at 66 and 72 kDa positions			standard melanoma tPA showed some activity
